# Reference: patent publication US20140294814A1 (SAMSUNG ELECTRONICS, published 2014)
# Tests used:
# [1] = target: T1, c-Met (NP_000236) (human, UniProt P08581 25-932, limits assumed); experiment: kinetic measurement, method and format not stated
# T1 construct: also called antigen
# [2] = target: T1, c-Met (NP_000236); experiment: estimated from several ELISAs, Fab
# [3] = target: T2, human IgG1 Fc protein (human, UniProt P01857-1 100-330 = IgG part, limits assumed); experiment: ELISA, plate-coated human IgG1 Fc protein, hybridoma culture supernatant
# T2 construct: domain: Fc; Counter-screen antigen in the hybridoma ELISA; also called human Fc protein; human Fc
# Experimental: The hybridoma cell culture obtained in Example 1(2) was added in an amount of 50 μL to each well of the plates and incubated for 1 hour. The cells remaining unreacted were washed out with a sufficient amount of Tris-buffered saline and Tween 20 (TBST). Goat anti-mouse IgG-horseradish peroxidase (HRP) was added to the plates and incubated for 1 hour at room temperature. The plates were washed with a sufficient amount of TBST. A substrate (OPD) of the peroxidase was added thereto, allowing the substrate and the peroxidase to react. The reaction level was determined by measuring absorbance at 450 nm on an ELISA reader. Hybridoma cell lines which secrete antibodies that specifically and strongly bind to human c-Met protein but not human Fc were selected repeatedly.
# [4] = target: T1, c-Met (NP_000236); experiment: ratio of the KD of chAbF46 to the KD of the clone
# [5] = target: T1, c-Met (NP_000236); experiment: method and reference clone not given
# T1 sequence (P08581 25-932 limits assumed): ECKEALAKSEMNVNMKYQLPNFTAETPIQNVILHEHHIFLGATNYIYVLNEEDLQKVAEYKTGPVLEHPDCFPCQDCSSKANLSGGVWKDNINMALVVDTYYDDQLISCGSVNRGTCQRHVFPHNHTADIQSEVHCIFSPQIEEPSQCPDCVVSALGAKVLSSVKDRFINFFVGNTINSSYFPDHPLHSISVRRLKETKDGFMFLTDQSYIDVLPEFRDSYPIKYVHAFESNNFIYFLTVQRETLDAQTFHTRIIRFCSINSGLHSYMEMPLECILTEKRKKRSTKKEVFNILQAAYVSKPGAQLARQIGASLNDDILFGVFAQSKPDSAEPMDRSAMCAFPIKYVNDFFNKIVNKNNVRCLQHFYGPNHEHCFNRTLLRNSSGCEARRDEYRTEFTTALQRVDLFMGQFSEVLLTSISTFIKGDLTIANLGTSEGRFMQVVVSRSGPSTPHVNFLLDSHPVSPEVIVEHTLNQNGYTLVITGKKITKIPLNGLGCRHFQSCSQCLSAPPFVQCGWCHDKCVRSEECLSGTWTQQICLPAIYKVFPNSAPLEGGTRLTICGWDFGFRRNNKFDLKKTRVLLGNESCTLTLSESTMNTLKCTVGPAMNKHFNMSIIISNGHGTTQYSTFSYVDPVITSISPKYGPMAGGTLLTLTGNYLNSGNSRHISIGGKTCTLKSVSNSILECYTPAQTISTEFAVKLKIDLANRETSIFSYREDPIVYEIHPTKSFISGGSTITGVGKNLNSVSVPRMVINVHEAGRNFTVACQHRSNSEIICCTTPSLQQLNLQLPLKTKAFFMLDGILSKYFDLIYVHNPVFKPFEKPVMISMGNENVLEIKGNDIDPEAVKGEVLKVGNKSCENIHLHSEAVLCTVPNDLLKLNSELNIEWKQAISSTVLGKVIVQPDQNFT
Kd [2] [nM],WT KD/Mutant KD [4] [ratio],fold enhancement of binding ability [5] [fold],Binder,further results
~4,,,"chimeric clone of AbF46 (Fab) (Fab, V domains shown, also called chAbF46) VH: EVKLVESGGGLVQPGGSLRLSCATSGFTFTDYYMSWVRQPPGKALEWLGFIRNKANGYTTEYSASVKGRFTISRDNSQSILYLQMDTLRAEDSATYYCARDNWFAYWGQGTLVTVSA VL: DILMTQSPSSLTVSAGEKVTMSCKSSQSLLASGNQNNYLAWHQQKPGRSPKMLIIWASTRVSGVPDRFIGSGSGTDFTLTINSVQAEDLAVYYCQQSYSAPLTFGAGTKLELKR",Kd [1]: 2.19 nM; koff [1]: 0.000723 s⁻¹; kon [1]: 329000 M⁻¹ s⁻¹
,,,"mouse antibody AbF46 (antibody, V domains shown, Mouse monoclonal antibody from a hybridoma; also called monoclonal antibody of hybridoma KCLRF-BP-00220) VH: EVKLVESGGGLVQPGGSLRLSCATSGFTFTDYYMSWVRQPPGKALEWLGFIRNKANGYTTEYSASVKGRFTISRDNSQSILYLQMDTLRAEDSATYYCARDNWFAYWGQGTLVTVSA VL: DILMTQSPSSLTVSAGEKVTMSCKSSQSLLASGNQNNYLAWHQQKPGRSPKMLIIWASTRVSGVPDRFIGSGSGTDFTLTINSVQAEDLAVYYCQQSYSAPLTFGAGTKLELKR",binding result [3]: no binding
~30,,,"clone L3E (Fab, V domains shown) VH: EVQLVESGGGLVQPGGSLRLSCAASGFTFTDYYISWVRQAPGKGLEWVGFIRNKANGYTTEYSASVKGRFTISRDDSKNSLYLQMNSLKTEDTAVYYCARDNWFAYWGQGTLVTVSS VL: DIVMTQSPLSLPVTPGEPASISCKSSQSLLASGNQNNYLAWYLQKPGQSPQLLIYWASTRVSGVPDRFSGSGSGTDFTLKISRVEAEDVGVYYCQQSYSRPLTFGQGTKLEIKR",
~0.3,12.8,,"clone L1bA (Fab) (Fab, V domains shown, L3E with S27->W (S27E->W) in CDR-L1; Fab with human kappa constant region and CH1 of human IgG1; also called LlbA) VH: EVQLVESGGGLVQPGGSLRLSCAASGFTFTDYYISWVRQAPGKGLEWVGFIRNKANGYTTEYSASVKGRFTISRDDSKNSLYLQMNSLKTEDTAVYYCARDNWFAYWGQGTLVTVSS VL: DIVMTQSPLSLPVTPGEPASISCKSSQSLLAWGNQNNYLAWYLQKPGQSPQLLIYWASTRVSGVPDRFSGSGSGTDFTLKISRVEAEDVGVYYCQQSYSRPLTFGQGTKLEIKR",fold improvement in binding over the starting clone L3E [2]: ~100 fold
,8.8,~3,"clone 1-F3 (Fab) (Fab, V domains shown, Clone from the combinatorial library; Fab with human kappa constant region and CH1 of human IgG1) VH: EVQLVESGGGLVQPGGSLRLSCAASGFTFTDYYISWVRQAPGKGLEWVGFIRNKANGYTTEYSASVKGRFTISRDDSKNSLYLQMNSLKTEDTAVYYCARDNWFAYWGQGTLVTVSS VL: DIVMTQSPLSLPVTPGEPASISCKSSQSLLAWGNQNNYAAWYLQKPGQSPQLLIYWASTRVSGVPDRFSGSGSGTDFTLKISRVEAEDVGVYYCQQSYSRPLTFGQGTKLEIKR",
,,,"antibody C28m (mutated C28) (Fab, V domains shown, C28 with L46M, Y49I and L96Y in VL; Described as an antibody fragment cloned into the same vector as the wild type) VH: EVQLVESGGGLVQPGGSLRLSCAASGFTFTDYYISWVRQAPGKGLEWVGFIRNKANGYTTEYSASVKGRFTISRDDSKNSLYLQMNSLKTEDTAVYYCARDNWFAYWGQGTLVTVSS VL: DIVMTQSPLSLPVTPGEPASISCKSSQSLLAWSNQNNYLAWYLQKPGQSPQMLIIWAITRVGGVPDRFSGSGSGTDFTLKISRVEAEDVGVYYCQQSYSRPYTFGQGTKLEIKR",Kd [1]: < 0.01 nM; koff [1]: < 7.4e-05 s⁻¹; kon [1]: 940000 M⁻¹ s⁻¹
,19.9,~3,"clone C28 (Fab) (Fab, V domains shown, Clone from the combinatorial library; Fab with human kappa constant region and CH1 of human IgG1) VH: EVQLVESGGGLVQPGGSLRLSCAASGFTFTDYYISWVRQAPGKGLEWVGFIRNKANGYTTEYSASVKGRFTISRDDSKNSLYLQMNSLKTEDTAVYYCARDNWFAYWGQGTLVTVSS VL: DIVMTQSPLSLPVTPGEPASISCKSSQSLLAWSNQNNYLAWYLQKPGQSPQLLIYWAITRVGGVPDRFSGSGSGTDFTLKISRVEAEDVGVYYCQQSYSRPLTFGQGTKLEIKR",
,13.7,~3,"clone C30 (Fab) (Fab, V domains shown, Clone from the combinatorial library; Fab with human kappa constant region and CH1 of human IgG1) VH: EVQLVESGGGLVQPGGSLRLSCAASGFTFTDYYISWVRQAPGKGLEWVGFIRNKANGYTTEYSASVKGRFTISRDDSKNSLYLQMNSLKTEDTAVYYCARDNWFAYWGQGTLVTVSS VL: DIVMTQSPLSLPVTPGEPASISCKSSQSLLAWGFQNNYLAWYLQKPGQSPQLLIYWASTRVGGVPDRFSGSGSGTDFTLKISRVEAEDVGVYYCQQSYSRPLTFGQGTKLEIKR",
